Assay results: publication PMC3422348

Target: Cdc37 (Cell division cycle protein 37) (human (endogenous in MDA-MB-453 and MDA-MB-231)) (UniProt Q16543)
Assay: co-IP; membrane fractions of MDA-MB-453 and MDA-MB-231 cells immunoprecipitated with anti-Cdc37 (18 h, 4°C, protein G-Sepharose), Western blot with anti-HSP90, anti-HER2, anti-EGFR; cells cultured in control medium or with 200 µg/ml anti-Cdc37 or 200 µg/ml mAb 4C5 for 16 h; densitometry

Sequence of UniProt Q16543 (Q16543 whole entry): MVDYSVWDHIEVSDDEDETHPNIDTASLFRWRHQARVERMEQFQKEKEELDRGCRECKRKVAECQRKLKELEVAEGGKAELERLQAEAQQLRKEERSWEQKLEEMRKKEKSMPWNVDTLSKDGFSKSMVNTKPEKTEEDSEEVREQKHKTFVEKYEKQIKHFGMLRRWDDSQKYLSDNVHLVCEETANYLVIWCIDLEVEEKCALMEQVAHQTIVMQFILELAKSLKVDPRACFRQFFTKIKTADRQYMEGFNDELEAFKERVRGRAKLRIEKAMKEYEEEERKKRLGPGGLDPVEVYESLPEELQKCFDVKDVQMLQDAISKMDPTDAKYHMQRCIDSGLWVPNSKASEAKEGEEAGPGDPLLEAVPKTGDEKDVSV

In the case of “HSP90 (from UniProt P07900 1-732) (natural protein)”, the percent decrease of the co-precipitate with 200 µg/ml anti-Cdc37 in the medium (MDA-MB 231) was 56%, the percent decrease of the co-precipitate with 200 µg/ml anti-Cdc37 in the medium (MDA-MB 453) was 33% and the percent decrease of the co-precipitate with 200 µg/ml mAb 4C5 in the medium (MDA-MB 231) was 88%. The percent decrease of the co-precipitate with 200 µg/ml mAb 4C5 in the medium (MDA-MB 453) was 60%.
